Reference: patent publication US11787839B2, “Targeting α2δ-1-bound glutamate receptors for treating diseases and disorders” (Board of Regents, The University of Texas System, priority 2017, dated 2023)
“Also recorded” adds a separate entry of the source.

What was measured:
α2δ-1-NMDAR interaction = experiment: Luminescence resonance energy transfer (LRET) in HEK293 cells; type: binding, rat
From the text: Luminescence resonance energy transfer (LRET) measurements: For constructs used for LRET measurements, the extracellular non-disulfide-bonded cysteines were mutated to serines so that they were not labeled with the maleimide reactive fluorophore. For the GluN1 subunit, Cys22 and Cys459 were mutated; for the GluN2A subunit, Cys231, Cys399 and Cys461 were mutated. For measurement of LRET between GluN1 and α2δ-1, Cys22 was not mutated and was used as the site for attachment of the thiol-reactive fluorophore. Additionally, for quantitative analysis of the background, a thrombin recognition sequence (amino acids LVPRGS) was inserted immediately at the C-terminal to the cysteine (Kim and Chung, 1992). […]
Cysteines at the GluN1 and GluN2A sites labeled with thiol-reactive terbium chelate served as donor fluorophore sites, and YFP fused to α2δ-1 served as the acceptor fluorophore. […] The sample was excited at 337 nm, and emission was detected at 527 nm in a QuantaMaster QM3-SS system with Fluorescan software (Photon Technology International, Edison, N.J.). […] Data were analyzed with Origin 8.6 software (OriginLab Corp., Northampton, Mass.). Each sample was scanned 3 times for each ligated condition, and each scan was recorded as an average of 99 sweeps. […] The distance between the donor and acceptor was calculated using the Förster equation (Kim and Chung, 1992).

α2δ-1-Cav2.2 association = molecular target: T1, α2δ-1-Cav2.2 association (Mus musculus, UniProt O08532+O55017); experiment: Co-IP of α2δ-1 and Cav2.2 in mouse brain slices subjected to OGD; type: cell-based; conditions: 1 μM for 30 min
T1 construct: from tissue; host or cells: mouse brain slices subjected to OGD, membrane extracts
T1 sequence (O08532 25-956 limits assumed): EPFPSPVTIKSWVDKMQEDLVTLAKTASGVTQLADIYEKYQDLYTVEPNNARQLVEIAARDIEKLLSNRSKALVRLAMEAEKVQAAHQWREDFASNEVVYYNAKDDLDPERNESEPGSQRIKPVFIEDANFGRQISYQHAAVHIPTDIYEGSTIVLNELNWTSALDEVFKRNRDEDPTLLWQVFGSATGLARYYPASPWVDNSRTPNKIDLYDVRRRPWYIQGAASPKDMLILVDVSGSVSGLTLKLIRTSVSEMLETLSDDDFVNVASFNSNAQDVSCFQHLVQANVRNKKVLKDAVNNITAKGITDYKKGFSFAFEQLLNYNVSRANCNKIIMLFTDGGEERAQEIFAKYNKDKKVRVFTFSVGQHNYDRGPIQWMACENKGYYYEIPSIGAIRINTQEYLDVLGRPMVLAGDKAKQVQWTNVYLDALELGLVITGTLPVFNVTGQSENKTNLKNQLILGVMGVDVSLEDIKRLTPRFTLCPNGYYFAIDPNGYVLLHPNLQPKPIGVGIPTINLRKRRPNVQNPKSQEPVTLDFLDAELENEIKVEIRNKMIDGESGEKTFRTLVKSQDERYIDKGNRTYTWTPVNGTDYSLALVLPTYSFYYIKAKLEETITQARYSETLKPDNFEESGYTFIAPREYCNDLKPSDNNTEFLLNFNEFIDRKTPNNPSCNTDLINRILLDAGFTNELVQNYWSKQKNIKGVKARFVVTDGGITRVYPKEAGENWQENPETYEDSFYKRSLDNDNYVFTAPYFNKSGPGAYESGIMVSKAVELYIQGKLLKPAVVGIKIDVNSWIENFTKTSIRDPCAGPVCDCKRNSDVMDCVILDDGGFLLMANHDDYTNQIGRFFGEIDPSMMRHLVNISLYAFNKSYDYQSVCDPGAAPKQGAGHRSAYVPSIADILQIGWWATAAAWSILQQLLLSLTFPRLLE
T1 sequence (O55017 whole entry): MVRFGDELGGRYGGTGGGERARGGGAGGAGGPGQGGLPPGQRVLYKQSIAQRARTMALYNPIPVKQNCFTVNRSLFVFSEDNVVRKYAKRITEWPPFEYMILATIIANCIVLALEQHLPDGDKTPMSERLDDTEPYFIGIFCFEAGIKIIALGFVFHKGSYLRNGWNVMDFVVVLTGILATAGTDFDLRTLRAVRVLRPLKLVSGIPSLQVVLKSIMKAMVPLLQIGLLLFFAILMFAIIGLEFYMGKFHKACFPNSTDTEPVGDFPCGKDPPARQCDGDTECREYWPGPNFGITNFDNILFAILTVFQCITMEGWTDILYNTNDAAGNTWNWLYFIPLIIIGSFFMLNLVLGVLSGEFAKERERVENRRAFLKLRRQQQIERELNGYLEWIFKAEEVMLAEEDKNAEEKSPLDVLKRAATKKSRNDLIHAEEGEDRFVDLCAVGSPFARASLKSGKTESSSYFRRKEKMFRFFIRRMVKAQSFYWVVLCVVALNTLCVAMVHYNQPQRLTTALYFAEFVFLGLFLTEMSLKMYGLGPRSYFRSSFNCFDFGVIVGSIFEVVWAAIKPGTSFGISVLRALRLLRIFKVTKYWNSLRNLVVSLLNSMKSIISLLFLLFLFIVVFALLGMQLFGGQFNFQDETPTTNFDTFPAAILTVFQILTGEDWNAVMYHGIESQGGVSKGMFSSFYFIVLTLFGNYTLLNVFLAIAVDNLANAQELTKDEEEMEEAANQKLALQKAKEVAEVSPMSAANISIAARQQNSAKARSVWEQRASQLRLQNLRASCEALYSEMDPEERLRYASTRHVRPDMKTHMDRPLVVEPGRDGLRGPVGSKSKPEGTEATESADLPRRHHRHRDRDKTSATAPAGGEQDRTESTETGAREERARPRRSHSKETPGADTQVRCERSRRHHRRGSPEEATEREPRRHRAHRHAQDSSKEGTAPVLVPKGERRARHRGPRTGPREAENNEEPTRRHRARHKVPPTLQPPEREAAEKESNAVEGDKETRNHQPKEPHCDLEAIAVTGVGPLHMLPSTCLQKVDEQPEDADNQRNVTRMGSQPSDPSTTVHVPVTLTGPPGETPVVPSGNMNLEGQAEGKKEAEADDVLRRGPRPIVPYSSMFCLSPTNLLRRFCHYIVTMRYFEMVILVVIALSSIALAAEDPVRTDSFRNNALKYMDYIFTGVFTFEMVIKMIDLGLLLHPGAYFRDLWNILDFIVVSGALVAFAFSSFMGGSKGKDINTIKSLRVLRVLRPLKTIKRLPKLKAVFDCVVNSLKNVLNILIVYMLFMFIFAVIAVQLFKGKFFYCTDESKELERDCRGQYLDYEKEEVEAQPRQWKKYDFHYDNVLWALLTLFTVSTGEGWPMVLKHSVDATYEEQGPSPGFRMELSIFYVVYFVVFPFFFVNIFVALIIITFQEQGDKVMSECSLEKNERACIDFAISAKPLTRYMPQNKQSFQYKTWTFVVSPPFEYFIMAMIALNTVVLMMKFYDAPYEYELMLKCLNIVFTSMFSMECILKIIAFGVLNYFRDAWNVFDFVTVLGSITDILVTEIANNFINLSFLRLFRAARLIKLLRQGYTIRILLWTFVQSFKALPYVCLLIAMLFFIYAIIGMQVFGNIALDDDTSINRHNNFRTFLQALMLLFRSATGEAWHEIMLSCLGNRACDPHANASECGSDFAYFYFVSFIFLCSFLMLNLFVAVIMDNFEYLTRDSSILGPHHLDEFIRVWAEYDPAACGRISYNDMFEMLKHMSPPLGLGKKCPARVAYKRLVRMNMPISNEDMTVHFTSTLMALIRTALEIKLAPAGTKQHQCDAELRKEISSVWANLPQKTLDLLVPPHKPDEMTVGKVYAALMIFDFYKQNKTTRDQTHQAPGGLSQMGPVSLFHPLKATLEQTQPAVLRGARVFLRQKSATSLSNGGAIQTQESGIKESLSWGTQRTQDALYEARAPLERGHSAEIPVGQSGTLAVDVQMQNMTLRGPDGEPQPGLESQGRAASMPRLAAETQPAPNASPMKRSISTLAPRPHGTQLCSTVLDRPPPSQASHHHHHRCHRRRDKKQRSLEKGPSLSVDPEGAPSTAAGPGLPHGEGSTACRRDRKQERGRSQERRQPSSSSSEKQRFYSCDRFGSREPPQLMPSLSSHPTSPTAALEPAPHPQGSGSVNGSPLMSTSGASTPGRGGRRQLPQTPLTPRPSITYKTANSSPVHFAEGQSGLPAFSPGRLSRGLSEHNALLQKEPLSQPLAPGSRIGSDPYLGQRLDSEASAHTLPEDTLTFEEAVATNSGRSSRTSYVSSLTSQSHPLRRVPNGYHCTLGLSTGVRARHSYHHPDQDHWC
Procedure: (§1) FIGS. 22A-22D: α2δ-1-bound NMDARs contribute to brain injury and neurological deficit caused by MCAO in the brain. (A) Upper: Original gel images of coimmunoprecipitation (co-IP) analysis show the interaction between α2δ-1 and GluN1 in two samples from mouse brain tissues; Lower: Effect of α2δ-1Tat peptide (1 μM for 60 min) on the α2δ-1-GluN1 protein complex in mouse brain tissues (n=6 mice per group). (B) Representative gel images and quantification of co-IP analysis show the effect of OGD on the α2δ-1-GluN1 or α2δ-1-Cav2.2 association in mouse brain tissues (n=6 mice per group). IgG and input were used as negative and positive controls, respectively. (C) Original gel images and quantification of co-IP analysis show the effect of α2δ-1Tat peptide (P) and control peptide (C; both 1 μM for 30 min) on the α2δ-1-GluN1 or α2δ-1-Cav2.2 association in mouse brain slices subjected to OGD (O, n=6 mice per group). (D) Neurological severity scores (left) and representative TTC staining and quantification (right) of brain infarct volume in MCAO mice treated with α2δ-1Tat peptide or control peptide (both 200 μg/kg, i.p.) at 15 min before MCAO and immediately before reperfusion (n=8 mice per group). Data are shown as means±SEM. *p<0.05, **p<0.01 compared with the control peptide- or vehicle-treated group (paired Student's t-test for panels B-D and F; Mann-Whitney test for panel E). […]

[1] = molecular target: T2, α2δ-1-GluN1 protein complex (Mus musculus, UniProt O08532+P35438); experiment: Co-IP of α2δ-1 and GluN1 in mouse brain slices; type: cell-based
T2 construct: from tissue; host or cells: mouse brain slices (hippocampal CA1, hypothalamic PVN, brain tissue membrane extracts)
T2 sequence (O08532 25-956 limits assumed, other chains not shown): as the sequence (O08532 25-956 limits assumed) above
Procedure: as §1

Row | Compound | LRET signal with the R217A mutant of α2δ-1 (α2δ-1-NMDAR interaction; YFP-α2δ-1 R217A mutant) | LRET signal between terbium-labeled NMDAR subunit and YFP-α2δ-1 (α2δ-1-NMDAR interaction; wild-type α2δ-1, terbium-labeled GluN2A or GluN1) | α2δ-1-Cav2.2 association in brain tissues subjected to OGD (α2δ-1-Cav2.2 association) | α2δ-1-GluN1 interaction in brain tissues subjected to OGD ([1]; OGD, 1 μM for 30 min) | α2δ-1-GluN1 protein complex in brain tissues ([1]; brain slices, 1 μM for 60 min)
1 | NCC1(CC(=O)O)CCCCC1 [gabapentin] | failed to alter; also recorded: had no effect | completely abrogated; also recorded: loss of the LRET signal; also recorded: diminished the interaction | – | – | –
2 | YGRKKRRQRRRVSGLNPSLWSIFGLQFILLWLVSGSRHYLW (a2d1 peptide) [α2δ-1Tat peptide, 30-amino-acid peptide mimicking the C-terminal domain of α2δ-1 fused to the cell-penetrating peptide Tat] | – | – | had no effect | substantially reduced | large reduction
